Literature values as cited in US10709784B2, “Metal chelating compositions and methods for controlling the growth or activities of a living cell or organism” (CHELATION PARTNERS INCORPORATED, priority 2011, dated 2020).

Conditions: comparison value, molecular weight 80 kDa/mole

B1: lactoferrin: iron binding defence protein, molecular weight 80 kDa/mole (protein, UniProt P02788 20-710, looked up)
Lactotransferrin: GRRRSVQWCAVSQPEATKCFQWQRNMRKVRGPPVSCIKRDSPIQCIQAIAENRADAVTLDGGFIYEAGLAPYKLRPVAAEVYGTERQPRTHYYAVAVVKKGGSFQLNELQGLKSCHTGLRRTAGWNVPIGTLRPFLNWTGPPEPIEAAVARFFSASCVPGADKGQFPNLCRLCAGTGENKCAFSSQEPYFSYSGAFKCLRDGAGDVAFIRESTVFEDLSDEAERDEYELLCPDNTRKPVDKFKDCHLARVPSHAVVARSVNGKEDAIWNLLRQAQEKFGKDKSPKFQLFGSPSGQKDLLFKDSAIGFSRVPPRIDSGLYLGSGYFTAIQNLRKSEEEVAARRARVVWCAVGEQELRKCNQWSGLSEGSVTCSSASTTEDCIALVLKGEADAMSLDGGYVYTAGKCGLVPVLAENYKSQQSSDPDPNCVDRPVEGYLAVAVVRRSDTSLTWNSVKGKKSCHTAVDRTAGWNIPMGLLFNQTGSCKFDEYFSQSCAPGSDPRSNLCALCIGDEQGENKCVPNSNERYYGYTGAFRCLAENAGDVAFVKDVTVLQNTDGNNNEAWAKDLKLADFALLCLDGKRKPVTEARSCHLAMAPNHAVVSRMDKVERLKQVLLHQQAKFGRNGSDCPDKFCLFQSETKNLLFNDNTECLARLHGKTTYEKYLGPQYVAGITNLKKCSTSPLLEACEFLRK
For B1, the “Fe bound per mole” value is given as 2 atoms of Fe/mole.
